Test [1] has as its target EC0, mutant E-cadherin protein that completely lacks the cytoplasmic domain. The test can be described thus: cross-linking.
The target of test [2] is EΔC37, mutant E-cadherin polypeptide with COOH-terminal deletion of 37 amino acid residues. As to the kind of experiment: co-IP.
The target in test [3] is EΔC71, mutant E-cadherin polypeptide with COOH-terminal deletion of 71 amino acid residues. The test can be described thus: co-IP.

The results in this text go back to paper PMC2141769.

One may read the stoichiometry N as a count of units in the complex or per binding partner. In test [1], “EC0, mutant E-cadherin protein that completely lacks the cytoplasmic domain (domain or fragment)” displayed a stoichiometry N of 2.

B1: p120 (natural protein)
chain: MDDSEVESTASILASVKEQEAQFEKLTRALEEERRHVSAQLERVRVSPQDANPLMANGTLTRRHQNGRFVGDADLERQKFSDLKLNGPQDHSHLLYSTIPRMQEPGQIVETYTEEDPEGAMSVVSVETSDDGTTRRTETTVKKVVKTVTTRTVQPVAMGPDGLPVDASSVSNNYIQTLGRDFRKNGNGGPGPYVGQAGTATLPRNFHYPPDGYSRHYEDGYPGGSDNYGSLSRVTRIEERYRPSMEGYRAPSRQDVYGPQPQVRVGGSSVDLHRFHPEPYGLEDDQRSMGYDDLDYGMMSDYGTARRTGTPSDPRRRLRSYEDMIGEEVPSDQYYWAPLAQHERGSLASLDSLRKGGPPPPNWRQPELPEVIAMLGFRLDAVKSNAAAYLQHLCYRNDKVKTDVRKLKGIPVLVGLLDHPKKEVHLGACGALKNISFGRDQDNKIAIKNCDGVPALVRLLRKARDMDLTEVITGTLWNLSSHDSIKMEIVDHALHALTDEVIIPHSGWEREPNEDCKPRHIEWESVLTNTAGCLRNVSSERSEARRKLRECDGLVDALIFIVQAEIGQKDSDSKLVENCVCLLRNLSYQVHREIPQAERYQEAAPNVANNTGPHAASCFGAKKGKDEWFSRGKKPIEDPANDTVDFPKRTSPARGYELLFQPEVVRIYISLLKESKTPAILEASAGAIQNLCAGRWTYGRYIRSALRQEKALSAIADLLTNEHERVVKAASGALRNLAVDARNKELIGKHAIPNLVKNLPGGQQNSSWNFSEDTVISILNTINEVIAENLEAAKKLRETQGIEKLVLINKSGNRSEKEVRAAALVLQTIWGYKELRKPLEKEGWKKSDFQVNLNNASRSQSSHSYDDSTLPLIDRNQKSDKKPDREEIQMSNMGSNTKSLDNNYSTPNERGDHNRTLDRSGDLGDMEPLKGTTPLMQDEGQESLEEELDVLVLDDEGGQVSYPSMQKI
Take B1: the amount of p120 coprecipitated, percent of EK cells in test [2] and in test [3] was 10% throughout.
